Like-named read-outs stand apart in the source and are kept apart here.

The text below walks through data of patent US20020051974.

Data set [1] concerns T1, VEGF (vascular endothelial growth factor), P15692-4.
T1 sequence: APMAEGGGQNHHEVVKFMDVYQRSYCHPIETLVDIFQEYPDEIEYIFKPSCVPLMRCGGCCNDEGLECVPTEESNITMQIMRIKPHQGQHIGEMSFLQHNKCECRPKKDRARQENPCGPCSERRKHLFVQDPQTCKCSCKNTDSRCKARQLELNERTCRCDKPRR
In words: filter. The settings on record: 50% of RNA bound, PBS.

Data set [2] has the same test system. The following applies: CITED Jellinek et al 1994, cited from earlier work.

For orientation: EC50 means the midpoint of the concentration-response curve. Low readings indicate greater potency, high ones weaker potency. For orientation: Kd means a measure of binding affinity in units of concentration. “GGGAGCUCAGAAUAAACGCUCAAGACCCAUCGUCAACGGUUGAGUCUGUCCCGUUCGACAUGAGGCCCGGAUCCGGC [VEGF40 (RNA transcript of printed DNA)]”: the concentration for a half-maximal effect (EC50) in data set [1] (1 mM MgCl2, room temperature) is 4.15 nM. The Kd in data set [2] is 0.19 nM.

As for “GGGAAUGGAUCCACAUCUACGAAUUCCGCGCACGUCACGGGCCGACACGAAUAUGGUUCACUGCAGACUUGACGAAGCUU [V10]”, in data set [1] (1 mM MgCl2, room temperature), the EC50 was found to be 31.4 nM. This counts as double-digit nanomolar.

Turning to “GGGAAUGGAUCCACAUCUACGAAUUCGAUGGCGUUAGUGGGAAUGAUUCUGCCGAGUUCACUGCAGACUUGACGAAGCUU [V07]”, the EC50 in data set [1] (1 mM MgCl2, room temperature) worked out at 17.3 nM.

Consider “GGGAAUGGAUCCACAUCUACGAAUUCCGCGCGCGCUAACCUUGNGGNGNAAGUAUGUUCACUGCAGACUUGACGAAGCUU [V13]”, for which, in data set [1] (1 mM MgCl2, sequence contains N), the EC50 amounted to 8.32 nM.

For “GGGAAUGGAUCCACAUCUACGAAUUCCGUUCUGCCGAGACUGCACGUGUGCUUGAAUUCACUGCAGACUUGACGAAGCUU [V09]”, in data set [1] (1 mM MgCl2, room temperature), the concentration giving a half-maximal response (EC50) turned out to be 24.2 nM.

“GGGAAUGGAUCCACAUCUACGAAUUCGGGAACAGCUCUAUUCCGCGCACGUUUGAGUUCACUGCAGACUUGACGAAGCUU [V04]” yielded an EC50 in data set [1] (1 mM MgCl2, room temperature) of 4.52 nM.

“GGGAAUGGAUCCACAUCUACGAAUUCCGCGCACGUAGGUUGGGUGUAACUGCGUUGUUCACUGCAGACUUGACGAAGCUU [V05]” yielded a 50% effective concentration (EC50) in data set [1] (1 mM MgCl2, room temperature) of 15.3 nM.

In turn, “GGGAGCUCAGAAUAAACGCUCAAACGGUUCUGUGUGUGGACUAGCCGCGGCCGUUCGACAUGAGGCCCGGAUCCGGC [VEGF126 (RNA transcript of printed DNA)]” registered a half-maximal effective concentration (EC50) in data set [1] (1 mM MgCl2, room temperature) of 19.9 nM. In addition, the Kd in data set [2] (unit not repeated for this value) is 0.14 nM.

Turning to “GGGAAUGGAUCCACAUCUACGAAUUCGGAUAUUCCGCGCACGUCAUUUCAUCAGCUUUCACUGCAGACUUGACGAAGCUU [V19]”, in data set [1] (1 mM MgCl2, room temperature), the half-maximal effective concentration (EC50) amounted to 7.61 nM.

As for “GGGAAUGGAUCCACAUCUACGAAUUCUUUGAAGAGGGUCAAUCCGCGCACGUUACGUUCACUGCAGACUUGACGAAGCUU [V03]”, the EC50 in data set [1] (1 mM MgCl2, room temperature) was 32.6 nM.

For “GGGAAUGGAUCCACAUCUACGAAUUCUGUAAGAUUGGUCUCCAGACUGCCGAGCUGUUCACUGCAGACUUGACGAAGCUU [V18]”, the EC50 in data set [1] (1 mM MgCl2, text gives 8.5) amounted to 8.52 nM.

The sequence “GGGAAUGGAUCCACAUCUACGAAUUCGAGGGUCCGUCUGCCGAGUCUUGUAACACCUUCACUGCAGACUUGACGAAGCUU [V02]” came in with an EC50 in data set [1] (1 mM MgCl2, room temperature) of 21.3 nM.

Take “GGGAAUGGAUCCACAUCUACGAAUUCAGGUGGAAAGCAAGUUCCGCGCACGUUAAUUUCACUGCAGACUUGACGAAGCUU [V08]”: the EC50 in data set [1] (1 mM MgCl2, room temperature) amounted to 14.4 nM.

On to “GGGAAUGGAUCCACAUCUACGAAUUCAGGCAGCGUAGAGGGUUCACUCUGCCGAGUUUCACUGCAGACUUGACGAAGCUU [V01]”, for which, in data set [1] (1 mM MgCl2, room temperature), the EC50 stood at 19 nM.

In data set [1] (1 mM MgCl2, printed sequence identical to V05), “GGGAAUGGAUCCACAUCUACGAAUUCCGCGCACGUAGGUUGGGUGUAACUGCGUUGUUCACUGCAGACUUGACGAAGCUU [V06]” yielded a concentration giving a half-maximal response (EC50) of 36.9 nM. This lies in the double-digit nanomolar range.
